Measurements as given in paper PMC11100904, “How short peptides can disassemble ultra-stable tau fibrils extracted from Alzheimer’s disease brain by a strain-relief mechanism” (Research Square, 2024).

Biological target: T1, 15N,13C-labeled tau K18+ (residues Gln244-Glu380 of 4R tau) (UniProt P10636-8 244-380)
T1 construct: Uniformly 15N,13C isotope-labelled for NMR; purified as the unlabeled protein; also called tau K18+ monomer; tau monomers; source: E. coli BL21-Gold, M9 medium with 15NH4Cl and 13C-glucose, purified (boiling, HiTrap SP HP ion exchange, Superdex 75)
Experiment: NMR titration; 1H-15N HSQC, 0.1 mM 15N,13C-labeled tau K18+ in 100 mM KCl, 20 mM NaH2PO4, 1 mM TCEP, 5%/95% D2O/H2O, pH 7.0, without or with 1 mM peptide (10-fold molar excess), 25 °C; chemical shift perturbation; one concentration, changes seen over time (2.5 months at 4 °C for D-TLKIVWI)
Details: both partners purified

T1 sequence (P10636 561-697): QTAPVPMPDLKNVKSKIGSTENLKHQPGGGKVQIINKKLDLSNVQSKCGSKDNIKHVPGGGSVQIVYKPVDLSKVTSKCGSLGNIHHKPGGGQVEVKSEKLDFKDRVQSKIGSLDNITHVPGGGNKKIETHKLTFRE

- binding result: binds
B1: L-TLKIVWI (peptide)
peptide: TLKIVWI
notes: L-enantiomer of the designed peptide D-TLKIVWI; All L-amino acids; also called L-TLKIVWX (X = I); source: synthetic peptide (GenScript, purified to ≥98%)
